In PMC7718890 one finds Ki data, which are given here for one molecule.

This data set addresses CarD WT;MTB RNAP (WT) (Mycobacterium …, UniProt P9WJG3;P9WGZ1;P9WGY9;P9WGY7;P9WGY5 1-162;1-347;1-1178;1-1316;1-110, |). Description: competition (fluorescence polarization). The settings on record: protein: recombinant;recombinant; tags: ;; copies: 1;2;1;1;1; blunt. A general note: Polarisation of emitted light reports the rotation of a fluorescent probe.

A word on the Ki: it is the equilibrium dissociation constant of an inhibitor or competing ligand from its target.

B1: rrnAP3 native 61 bp (dsDNA)
DNA 1: GATGACCGAACCTGGTCTTGACTCCATTGCCGGATTTGTATTAGACTGGCAGGGTTGCCCC
DNA 2: GGGGCAACCCTGCCAGTCTAATACAAATCCGGCAATGGAGTCAAGACCAGGTTCGGTCATC
On to B1, for which the inhibition constant (Ki) stood at 8 ± 1 nM.
